Results from patent publication US20230303690A1 (published 2023).
Each block holds one binder with its values, some of them ahead of it.

Experiments:
[1] = biological target: T1, LAG3 Protein, Human, Recombinant (His Tag) (Sino Biological Catalog No. 16498-H08H) (human, UniProt P18627 23-450); experiment: SPR binning on LAG3-His; competitor 20
T1 construct: Bought protein; also called hLAG3-His; LAG3-His; not shown: His tag
T1 sequence (looked up): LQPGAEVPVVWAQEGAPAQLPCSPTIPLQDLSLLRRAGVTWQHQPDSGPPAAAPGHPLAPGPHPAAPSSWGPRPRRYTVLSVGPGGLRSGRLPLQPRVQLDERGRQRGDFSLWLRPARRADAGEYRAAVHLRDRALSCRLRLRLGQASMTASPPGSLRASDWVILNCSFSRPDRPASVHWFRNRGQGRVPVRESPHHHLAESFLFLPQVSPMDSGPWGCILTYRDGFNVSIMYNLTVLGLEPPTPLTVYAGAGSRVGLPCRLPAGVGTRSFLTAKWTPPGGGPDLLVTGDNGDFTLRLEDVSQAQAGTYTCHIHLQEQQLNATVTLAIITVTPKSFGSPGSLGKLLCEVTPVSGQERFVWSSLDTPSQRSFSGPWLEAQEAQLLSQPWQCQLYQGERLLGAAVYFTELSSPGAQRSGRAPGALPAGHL
Procedure: (§1) The chip surface was regenerated after each cycle with 25 mM NaOH followed by HBS-EP wash provided in the kit.

[2] = biological target: T1, LAG3 Protein, Human, Recombinant (His …); experiment: SPR binning on LAG3-His; competitor 21
Procedure: as §1

[3] = biological target: T1, LAG3 Protein, Human, Recombinant (His …); experiment: SPR binning on LAG3-His; competitor 24
Procedure: as §1

[4] = biological target: T2, human LAG3 expressed on cells (human, UniProt P18627 23-525); experiment: cell-based or functional assay
T2 sequence (looked up): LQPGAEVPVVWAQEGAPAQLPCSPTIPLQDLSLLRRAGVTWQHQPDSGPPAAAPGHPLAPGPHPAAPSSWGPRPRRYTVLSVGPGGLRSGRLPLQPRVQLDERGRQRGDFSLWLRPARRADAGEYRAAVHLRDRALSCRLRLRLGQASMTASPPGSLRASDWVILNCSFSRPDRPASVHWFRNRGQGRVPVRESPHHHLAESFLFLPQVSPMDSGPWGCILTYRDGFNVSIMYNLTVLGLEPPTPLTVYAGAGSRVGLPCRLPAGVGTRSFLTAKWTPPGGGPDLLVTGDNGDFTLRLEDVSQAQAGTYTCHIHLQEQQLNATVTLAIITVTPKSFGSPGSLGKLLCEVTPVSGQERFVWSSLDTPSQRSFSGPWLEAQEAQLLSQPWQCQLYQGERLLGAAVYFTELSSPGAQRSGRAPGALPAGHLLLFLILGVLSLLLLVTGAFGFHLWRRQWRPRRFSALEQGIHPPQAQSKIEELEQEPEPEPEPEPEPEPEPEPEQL

[5] = biological target: T1, LAG3 Protein, Human, Recombinant (His …); experiment: SPR binning on LAG3-His; competitor 73
Procedure: as §1

[6] = biological target: T1, LAG3 Protein, Human, Recombinant (His …); experiment: SPR binning on LAG3-His; competitor 27
Procedure: as §1

[7] = biological target: T1, LAG3 Protein, Human, Recombinant (His …); experiment: SPR binning on LAG3-His; competitor 18
Procedure: as §1

[8] = biological target: T2, human LAG3 expressed on cells; experiment: cell-based or functional assay; remark: listed apart in the source
[9] = biological target: T1, LAG3 Protein, Human, Recombinant (His …); experiment: SPR binning on LAG3-His; competitor 37
Procedure: as §1

[10] = biological target: T1, LAG3 Protein, Human, Recombinant (His …); experiment: SPR binning on LAG3-His; competitor BMS
Procedure: as §1

[11] = biological target: T1, LAG3 Protein, Human, Recombinant (His …); experiment: SPR binning on LAG3-His; competitor 17
Procedure: as §1

[12] = biological target: T1, LAG3 Protein, Human, Recombinant (His …); experiment: SPR binning on LAG3-His; competitor 25
Procedure: as §1

[13] = biological target: T1, LAG3 Protein, Human, Recombinant (His …); experiment: SPR (Biacore), sdAb captured by anti-human Fc, LAG3-His analyte
Procedure: The binding of the single domain antibodies to recombinant human LAG3 protein (rhLAG3) was examined by Biacore™ assay. […] The coating was carried out according to the manufacturer’s instructions accompanying the kit (Catalog No. BR-1008-39, GE). […] The chip surface was regenerated after each cycle with 25 mM NaOH followed by HBS-EP wash provided in the kit.

[14] = biological target: T1, LAG3 Protein, Human, Recombinant (His …); experiment: SPR binning on LAG3-His; competitor 1
Procedure: as §1

RU [1]: -11.7 RU
RU [2]: -10.1 RU
RU [3]: -10.1 RU
EC50 for IL-2 rescue, hLAG3 Jurkat T system [4]: 8.49 nM
Efficacy (IL-2 production, BMS = 100%) [4]: 50.2%
RU [5]: -15.1 RU
RU [6]: -6.2 RU
RU [7]: -9.6 RU
IL-2, % of BMS, at 0.005080526 ug/mL [8]: 5.57%
IL-2, % of BMS, at 0.015241579 ug/mL [8]: 13.4%
IL-2, % of BMS, at 0.045724737 ug/mL [8]: 12.1%
IL-2, % of BMS, at 0.137174211 ug/mL [8]: 18%
IL-2, % of BMS, at 0.411522634 ug/mL [8]: 27.3%
IL-2, % of BMS, at 1.234567901 ug/mL [8]: 36.5%
IL-2, % of BMS, at 3.703703704 ug/mL [8]: 43.4%
IL-2, % of BMS, at 11.11111111 ug/mL [8]: 50%
IL-2, % of BMS, at 33.33333333 ug/mL [8]: 52.9%
IL-2, % of BMS, at 100 ug/mL [8]: 52.8%
RU [9]: -9.1 RU
RU [10]: 48.2 RU
RU [11]: -11.7 RU
RU [12]: 34 RU
koff [13]: 4.09e-07 s⁻¹
kon [13]: 1.17e+07 M⁻¹ s⁻¹
RU [14]: -9.1 RU
B1: sdAb No. 27 (VHH)
VHH: QVQLVESGGGLVQPGGSLRLSCAASGFTLDYYAIGWFRQAPGKEREGVSCIRSSDGSTYYADSVKGRFTISSDNTKNTVYLQMNSLKPEDTAVYYCATDRYSDCRGPYENWGQGTQVTVSS
notes: Fc of the tested form not described; also called sdAb 27; not shown: Fc part implied by anti-human Fc capture and anti-human IgG Fc detection

RU [1]: -14.6 RU
RU [2]: -12.5 RU
RU [3]: -10.4 RU
EC50 for IL-2 rescue, hLAG3 Jurkat T system [4]: 7.72 nM
Efficacy (IL-2 production, BMS = 100%) [4]: 46.5%
RU [5]: -17 RU
RU [6]: -7 RU
RU [7]: -7.5 RU
IL-2, % of BMS, at 0.005080526 ug/mL [8]: 5.97%
IL-2, % of BMS, at 0.015241579 ug/mL [8]: 9.56%
IL-2, % of BMS, at 0.045724737 ug/mL [8]: 9.97%
IL-2, % of BMS, at 0.137174211 ug/mL [8]: 18%
IL-2, % of BMS, at 0.411522634 ug/mL [8]: 22.3%
IL-2, % of BMS, at 1.234567901 ug/mL [8]: 26.5%
IL-2, % of BMS, at 3.703703704 ug/mL [8]: 31.4%
IL-2, % of BMS, at 11.11111111 ug/mL [8]: 38%
IL-2, % of BMS, at 33.33333333 ug/mL [8]: 38%
IL-2, % of BMS, at 100 ug/mL [8]: 42.2%
RU [9]: -13.4 RU
RU [10]: 15.2 RU
RU [11]: -2 RU
RU [12]: 17.9 RU
Kd [13]: 0.181 nM
koff [13]: 0.0012 s⁻¹
kon [13]: 6.6e+06 M⁻¹ s⁻¹
RU [14]: -13.6 RU
B2: sdAb No. 17 (VHH)
VHH: QLQLVESGGGLVQPGGSLRLSCAASGLTLDGYAIGWFRQAPGKEREGLACISGSDGSTHYLDSVKGRFTISRDNGKNTMALQMNSLQFGDTAIYYCAARRGSCSGSWTYWGQGTQVTVSS
notes: Fc of the tested form not described; also called sdAb 17; not shown: Fc part implied by anti-human Fc capture and anti-human IgG1 Fc detection

RU [1]: 44.6 RU
RU [2]: 49.3 RU
RU [3]: 46.4 RU
EC50 for IL-2 rescue, hLAG3 Jurkat T system [4]: 8.12 nM
Efficacy (IL-2 production, BMS = 100%) [4]: 43.4%
RU [5]: 47.6 RU
RU [6]: 50.9 RU
RU [7]: 39 RU
IL-2, % of BMS, at 0.005080526 ug/mL [8]: 3.24%
IL-2, % of BMS, at 0.015241579 ug/mL [8]: -0.59%
IL-2, % of BMS, at 0.045724737 ug/mL [8]: 8.03%
IL-2, % of BMS, at 0.137174211 ug/mL [8]: 2.39%
IL-2, % of BMS, at 0.411522634 ug/mL [8]: 9.2%
IL-2, % of BMS, at 1.234567901 ug/mL [8]: 25.1%
IL-2, % of BMS, at 3.703703704 ug/mL [8]: 30.6%
IL-2, % of BMS, at 11.11111111 ug/mL [8]: 34.1%
IL-2, % of BMS, at 33.33333333 ug/mL [8]: 39.8%
IL-2, % of BMS, at 100 ug/mL [8]: 53.7%
RU [9]: 44.1 RU
RU [10]: 31.7 RU
RU [11]: 41 RU
RU [12]: 7.2 RU
Kd [13]: 0.017 nM
koff [13]: 0.000108 s⁻¹
kon [13]: 6.31e+06 M⁻¹ s⁻¹
RU [14]: 44.7 RU
B3: sdAb No. 25 (VHH)
VHH: QLQLVESGGGLVQAGGSLRLSCAASGSIESFSFMGWYRQAPGKQRELVAGFTGAASLSFSTYTDAVKGRFTISRDNAKNTVYLQMNSLKPEDTAVYFCNVDPWSQSWPGRYWGQGTQVTVSS
notes: Fc of the tested form not described; also called sdAb 25; sdAb #25; not shown: Fc part implied by anti-human Fc capture and anti-human IgG Fc detection
